Drawing on patent US20190046652A1, this text covers Kd for one molecule.

For assay [1], the target named is Peptide (C4 and C2). Nature of the assay: fluorescence titration, curve fitting.
Assay [2] deals with protein (GFP & Nanobody). Nature of the assay: fluorescence titration, curve fitting.

B1: VEPEP-3a (peptide)
peptide: XKWFERWFREWPRKRR
HELM: PEPTIDE1{[ac].[bAla].K.W.F.E.R.W.F.R.E.W.P.R.K.R.R.[SCCN[*:1]]}$$$$V2.0
SMILES: CC(=O)NCCC(=O)N[C@@H](CCCCN)C(=O)N[C@@H](Cc1c[nH]c2ccccc12)C(=O)N[C@@H](Cc1ccccc1)C(=O)N[C@@H](CCC(=O)O)C(=O)N[C@@H](CCCNC(=N)N)C(=O)N[C@@H](Cc1c[nH]c2ccccc12)C(=O)N[C@@H](Cc1ccccc1)C(=O)N[C@@H](CCCNC(=N)N)C(=O)N[C@@H](CCC(=O)O)C(=O)N[C@@H](Cc1c[nH]c2ccccc12)C(=O)N1CCC[C@H]1C(=O)N[C@@H](CCCNC(=N)N)C(=O)N[C@@H](CCCCN)C(=O)N[C@@H](CCCNC(=N)N)C(=O)N[C@@H](CCCNC(=N)N)C(=O)NCCS
Regarding B1, the Kd (as a rule, the concentration at which binding is half-saturated) in assay [1] is 10 to 20 nM; in assay [2], 1000 nM.
